Laboratory results published in the supplement of paper PMC10065799, “High-throughput profiling of sequence recognition by tyrosine kinases and SH2 domains using bacterial peptide display” (eLife, 2023).

How the values were obtained:
FGFR1 = FGFR1 (UniProt P11362); experiment: phosphorylation enrichment, bacterial display (enrichment ratio); higher = better substrate or ligand; peptides without Tyr show the background
Jak2 = Jak2 (UniProt O60674); experiment: as above
FGFR3 = FGFR3 (UniProt P22607); experiment: as above
c-Src = experiment: as above
EPHB2 = EPHB2 (UniProt P29323); experiment: as above
Hck = Hck (UniProt P08631); experiment: as above
MERTK = MERTK (UniProt Q12866); experiment: as above
c-Abl (mouse) = experiment: as above
Fer (mouse) = experiment: as above
Fyn = Fyn (UniProt P06241); experiment: as above
EPHB1 = EPHB1 (UniProt P54762); experiment: as above
AncSZ = experiment: as above
Fes = Fes (UniProt P07332); experiment: as above
Grb2 SH2 = Grb2 SH2 (UniProt P62993); experiment: SH2 binding enrichment of the phosphorylated peptide, bacterial display (enrichment ratio); higher = better substrate or ligand; peptides without Tyr show the background
SHP2-C SH2 = experiment: as above
c-Src SH2 = experiment: as above
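Throughout, for SH2 binding enrichment of the phosphorylated peptide, bacterial display: peptide library displayed on the E. coli surface as eCPX fusions, selected cells deep-sequenced, score is each peptide's frequency after selection divided by its frequency in the input.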
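Throughout, for phosphorylation enrichment, bacterial display: 11-residue human phosphosite peptides and single-mutation variants displayed on the E. coli surface, counted by deep sequencing, each peptide's frequency after selection divided by its frequency in the unselected input library; frequency after pTyr selection over input frequency; kinase dosed for 20-30% of maximal phosphorylation in three min.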

FGFR1, sequence (P11362 whole entry, looked up): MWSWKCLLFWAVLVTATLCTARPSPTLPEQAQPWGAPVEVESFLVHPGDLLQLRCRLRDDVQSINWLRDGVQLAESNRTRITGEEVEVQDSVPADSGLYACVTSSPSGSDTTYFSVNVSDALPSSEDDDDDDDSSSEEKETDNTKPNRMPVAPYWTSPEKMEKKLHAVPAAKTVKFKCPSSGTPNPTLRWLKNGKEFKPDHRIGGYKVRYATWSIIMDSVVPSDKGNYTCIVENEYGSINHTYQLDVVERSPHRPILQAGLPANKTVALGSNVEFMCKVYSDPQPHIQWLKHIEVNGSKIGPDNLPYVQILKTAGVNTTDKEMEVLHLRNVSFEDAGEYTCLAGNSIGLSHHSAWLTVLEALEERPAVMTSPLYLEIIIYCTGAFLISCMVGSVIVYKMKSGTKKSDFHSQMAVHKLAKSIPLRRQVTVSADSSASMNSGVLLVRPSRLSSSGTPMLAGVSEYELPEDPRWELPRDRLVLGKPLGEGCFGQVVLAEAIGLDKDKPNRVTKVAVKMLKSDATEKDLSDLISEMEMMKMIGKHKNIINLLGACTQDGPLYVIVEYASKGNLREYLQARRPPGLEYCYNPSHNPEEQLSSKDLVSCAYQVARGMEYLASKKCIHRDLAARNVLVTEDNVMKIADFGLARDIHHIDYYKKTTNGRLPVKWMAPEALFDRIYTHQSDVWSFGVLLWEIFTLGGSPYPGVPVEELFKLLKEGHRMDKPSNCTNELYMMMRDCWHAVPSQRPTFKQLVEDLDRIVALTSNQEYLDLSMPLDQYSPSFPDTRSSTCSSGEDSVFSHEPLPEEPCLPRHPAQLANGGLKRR
EPHB1, sequence (P54762 whole entry, looked up): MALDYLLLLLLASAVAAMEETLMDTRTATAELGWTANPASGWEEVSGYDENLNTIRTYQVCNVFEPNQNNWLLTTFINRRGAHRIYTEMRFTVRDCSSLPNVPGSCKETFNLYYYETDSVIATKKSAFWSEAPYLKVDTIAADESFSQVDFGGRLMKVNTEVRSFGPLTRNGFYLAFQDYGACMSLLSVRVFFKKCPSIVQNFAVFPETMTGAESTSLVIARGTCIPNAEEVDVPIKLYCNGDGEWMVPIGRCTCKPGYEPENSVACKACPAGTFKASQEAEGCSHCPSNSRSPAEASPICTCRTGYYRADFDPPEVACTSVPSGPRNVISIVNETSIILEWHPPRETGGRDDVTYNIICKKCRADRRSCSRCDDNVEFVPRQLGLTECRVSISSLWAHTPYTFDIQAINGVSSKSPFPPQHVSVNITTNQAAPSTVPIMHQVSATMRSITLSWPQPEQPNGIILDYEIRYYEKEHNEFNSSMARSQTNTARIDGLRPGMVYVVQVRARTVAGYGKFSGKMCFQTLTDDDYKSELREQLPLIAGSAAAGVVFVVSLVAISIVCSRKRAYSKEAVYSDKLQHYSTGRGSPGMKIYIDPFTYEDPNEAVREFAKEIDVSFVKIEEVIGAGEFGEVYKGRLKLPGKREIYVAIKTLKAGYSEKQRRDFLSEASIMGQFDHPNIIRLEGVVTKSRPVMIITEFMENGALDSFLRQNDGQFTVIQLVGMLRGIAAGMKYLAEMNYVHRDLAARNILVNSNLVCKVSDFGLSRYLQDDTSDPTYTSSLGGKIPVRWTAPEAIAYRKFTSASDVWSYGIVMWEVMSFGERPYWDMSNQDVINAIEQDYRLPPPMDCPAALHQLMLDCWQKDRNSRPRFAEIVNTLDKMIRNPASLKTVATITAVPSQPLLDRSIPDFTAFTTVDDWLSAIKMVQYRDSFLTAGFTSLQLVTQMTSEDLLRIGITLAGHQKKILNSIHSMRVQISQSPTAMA
Fyn, sequence (P06241 whole entry, looked up): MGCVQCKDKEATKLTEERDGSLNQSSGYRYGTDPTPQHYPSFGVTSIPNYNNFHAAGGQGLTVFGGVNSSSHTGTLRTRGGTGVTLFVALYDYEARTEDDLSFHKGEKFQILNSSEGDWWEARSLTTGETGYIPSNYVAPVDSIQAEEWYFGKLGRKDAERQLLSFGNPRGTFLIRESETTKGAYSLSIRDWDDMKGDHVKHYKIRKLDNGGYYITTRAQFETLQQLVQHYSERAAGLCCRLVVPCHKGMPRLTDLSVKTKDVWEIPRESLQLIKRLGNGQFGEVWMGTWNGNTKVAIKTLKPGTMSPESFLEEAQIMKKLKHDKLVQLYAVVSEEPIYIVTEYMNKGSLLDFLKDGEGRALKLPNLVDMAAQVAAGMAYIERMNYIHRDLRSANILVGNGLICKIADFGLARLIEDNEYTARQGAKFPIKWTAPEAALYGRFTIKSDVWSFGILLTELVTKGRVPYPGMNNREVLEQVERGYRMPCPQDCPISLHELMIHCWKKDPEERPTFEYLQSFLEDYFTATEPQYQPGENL
Hck, sequence (P08631 whole entry, looked up): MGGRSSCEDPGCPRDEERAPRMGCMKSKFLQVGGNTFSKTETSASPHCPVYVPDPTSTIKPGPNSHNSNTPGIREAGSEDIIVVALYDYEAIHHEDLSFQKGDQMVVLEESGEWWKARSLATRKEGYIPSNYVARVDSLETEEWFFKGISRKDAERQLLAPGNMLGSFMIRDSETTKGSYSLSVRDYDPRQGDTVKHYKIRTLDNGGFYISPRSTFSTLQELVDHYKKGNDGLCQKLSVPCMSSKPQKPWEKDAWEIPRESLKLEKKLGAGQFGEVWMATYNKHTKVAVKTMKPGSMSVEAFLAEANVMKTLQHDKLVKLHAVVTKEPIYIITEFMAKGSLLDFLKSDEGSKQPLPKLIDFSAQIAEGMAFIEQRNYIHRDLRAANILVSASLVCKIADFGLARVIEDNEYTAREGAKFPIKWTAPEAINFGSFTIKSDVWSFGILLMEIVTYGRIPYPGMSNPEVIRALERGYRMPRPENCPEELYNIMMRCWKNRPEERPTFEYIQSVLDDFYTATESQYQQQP
MERTK, sequence (Q12866 whole entry, looked up): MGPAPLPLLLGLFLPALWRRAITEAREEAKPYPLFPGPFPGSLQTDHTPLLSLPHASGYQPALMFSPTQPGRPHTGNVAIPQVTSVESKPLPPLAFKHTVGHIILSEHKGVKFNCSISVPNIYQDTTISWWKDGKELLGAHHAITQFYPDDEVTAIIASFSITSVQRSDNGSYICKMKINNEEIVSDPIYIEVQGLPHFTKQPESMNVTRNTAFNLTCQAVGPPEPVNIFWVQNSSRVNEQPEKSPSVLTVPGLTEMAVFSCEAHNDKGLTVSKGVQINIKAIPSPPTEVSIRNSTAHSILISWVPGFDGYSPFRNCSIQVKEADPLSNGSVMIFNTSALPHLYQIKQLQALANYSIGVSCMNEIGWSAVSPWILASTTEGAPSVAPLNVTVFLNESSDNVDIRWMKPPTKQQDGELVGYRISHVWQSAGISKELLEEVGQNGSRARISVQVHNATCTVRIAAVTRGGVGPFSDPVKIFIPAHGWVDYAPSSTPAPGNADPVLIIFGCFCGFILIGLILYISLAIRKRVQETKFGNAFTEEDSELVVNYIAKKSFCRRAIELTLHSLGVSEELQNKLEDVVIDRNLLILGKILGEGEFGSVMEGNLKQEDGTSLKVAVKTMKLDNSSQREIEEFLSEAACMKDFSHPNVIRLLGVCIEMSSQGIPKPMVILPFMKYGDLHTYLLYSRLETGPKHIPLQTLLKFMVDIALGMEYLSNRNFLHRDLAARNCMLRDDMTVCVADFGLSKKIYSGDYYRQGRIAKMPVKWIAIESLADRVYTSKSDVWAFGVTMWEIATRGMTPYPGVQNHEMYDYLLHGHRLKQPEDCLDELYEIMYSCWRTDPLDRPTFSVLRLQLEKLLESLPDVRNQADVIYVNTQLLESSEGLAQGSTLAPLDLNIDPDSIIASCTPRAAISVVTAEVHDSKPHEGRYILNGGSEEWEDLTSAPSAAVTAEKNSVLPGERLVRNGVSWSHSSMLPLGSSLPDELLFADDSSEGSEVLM
FGFR3, sequence (P22607 whole entry, looked up): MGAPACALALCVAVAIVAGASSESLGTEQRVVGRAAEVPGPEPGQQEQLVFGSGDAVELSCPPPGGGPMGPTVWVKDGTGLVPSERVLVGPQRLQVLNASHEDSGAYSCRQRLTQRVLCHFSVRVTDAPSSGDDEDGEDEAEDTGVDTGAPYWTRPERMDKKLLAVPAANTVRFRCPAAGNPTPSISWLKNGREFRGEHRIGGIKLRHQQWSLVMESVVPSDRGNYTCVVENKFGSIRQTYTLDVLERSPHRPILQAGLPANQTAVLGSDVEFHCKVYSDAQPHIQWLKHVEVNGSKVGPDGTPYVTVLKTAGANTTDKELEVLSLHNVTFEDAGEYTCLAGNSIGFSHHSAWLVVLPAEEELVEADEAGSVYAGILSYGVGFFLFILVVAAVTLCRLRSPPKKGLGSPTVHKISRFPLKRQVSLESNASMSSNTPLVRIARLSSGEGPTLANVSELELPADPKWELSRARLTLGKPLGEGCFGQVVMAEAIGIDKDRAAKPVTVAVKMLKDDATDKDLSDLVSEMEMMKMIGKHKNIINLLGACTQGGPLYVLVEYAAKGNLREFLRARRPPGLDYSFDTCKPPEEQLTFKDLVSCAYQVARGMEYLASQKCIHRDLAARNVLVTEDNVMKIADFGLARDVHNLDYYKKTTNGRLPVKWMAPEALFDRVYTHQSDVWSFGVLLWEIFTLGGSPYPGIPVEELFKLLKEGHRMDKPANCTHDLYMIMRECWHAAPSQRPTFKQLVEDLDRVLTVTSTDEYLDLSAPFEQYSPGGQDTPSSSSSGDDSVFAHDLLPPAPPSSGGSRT

| Sequence | SH2 binding enrichment (Grb2 SH2) | SH2 binding enrichment (SHP2-C SH2) | SH2 binding enrichment (c-Src SH2) | phosphorylation enrichment (FGFR1) | phosphorylation enrichment (Jak2) | phosphorylation enrichment (FGFR3) | phosphorylation enrichment (c-Src) | phosphorylation enrichment (EPHB2) | phosphorylation enrichment (Hck) | phosphorylation enrichment (MERTK) | phosphorylation enrichment (c-Abl (mouse)) | phosphorylation enrichment (Fer (mouse)) | phosphorylation enrichment (Fyn) | phosphorylation enrichment (EPHB1) | phosphorylation enrichment (AncSZ) | phosphorylation enrichment (Fes) |
| --- | --- | --- | --- | --- | --- | --- | --- | --- | --- | --- | --- | --- | --- | --- | --- | --- |
| PTQLPYDHKWE [KIT_Y578] | 0.923 | 0.575 | 0.524 | 0.581 | 0.68 | 0.696 | 0.618 | 0.631 | 0.87 | 0.449 | 0.655 | 0.601 | 0.491 | 0.716 | 0.859 | 1.33 |
| PVLSLYASGRT [ACTA1_Y145_A140P] | 0.841 | 0.926 | 0.484 | 0.328 | 1.39 | 0.703 | 0.573 | 0.548 | 0.768 | 0.752 | 1.31 | 0.539 | 0.616 | 0.637 | 1.14 | 1.19 |
| PVQAAYQKVVA [HBB_Y131] | 0.795 | 0.516 | 0.706 | 0.645 | 0.37 | 0.591 | 0.471 | 0.536 | 0.505 | 0.716 | 0.716 | 0.557 | 0.418 | 0.694 | 0.41 | 0.438 |
| PVQAAYQKVVD [HBB_Y131_A136D] | 1.12 | 0.697 | 0.719 | 0.655 | 0.577 | 0.515 | 0.458 | 1.06 | 0.931 | 0.38 | 0.432 | 0.384 | 0.621 | 0.493 | 0.831 | 1.01 |
| QDGFSYLSRQM [LDLR_Y847_P848L_YF] | 0.983 | 0.557 | 0.406 | 0.872 | 0.844 | 0.995 | 0.461 | 0.797 | 0.748 | 0.413 | 0.563 | 0.636 | 0.772 | 0.584 | 0.985 | 1.07 |
| QEIATYPRLLE [KRT14_Y415_R416P] | 0.575 | 0.705 | 0.443 | 0.77 | 1.43 | 0.869 | 0.595 | 1.04 | 0.845 | 0.515 | 1.07 | 0.792 | 0.611 | 0.581 | 1.08 | 1.62 |
| QEKKGYFEDRC [GLUL_Y336_R341C] | 1.5 | 0.948 | 0.589 | 0.804 | 1 | 0.716 | 0.613 | 0.631 | 0.655 | 0.799 | 0.843 | 0.519 | 0.609 | 0.522 | 1.06 | 1.29 |
| QERPEYWDQET [HLA-A_Y83_G80R] | 0.985 | 0.827 | 0.626 | 0.727 | 1.56 | 0.915 | 0.554 | 0.702 | 0.696 | 0.566 | 1.14 | 1.14 | 0.646 | 0.693 | 1.81 | 1.58 |
| QGGRCYMMIVD [GAA_Y438_R437C] | 0.696 | 0.674 | 0.957 | 0.815 | 2.11 | 1.83 | 1.03 | 1.29 | 0.769 | 0.928 | 1.81 | 0.948 | 0.87 | 1.35 | 2.31 | 2.69 |
| QLDQRYLLVPE [DDX49_Y223] | 0.754 | 0.715 | 0.763 | 0.843 | 0.748 | 0.799 | 0.701 | 0.807 | 0.664 | 0.572 | 0.665 | 0.374 | 0.574 | 0.613 | 1.12 | 0.978 |

Further lines, with some results ahead:

| SH2 binding enrichment (Grb2 SH2) | SH2 binding enrichment (SHP2-C SH2) | SH2 binding enrichment (c-Src SH2) | Sequence | phosphorylation enrichment (FGFR1) | phosphorylation enrichment (Jak2) | phosphorylation enrichment (FGFR3) | phosphorylation enrichment (c-Src) | phosphorylation enrichment (EPHB2) | phosphorylation enrichment (Hck) | phosphorylation enrichment (MERTK) | phosphorylation enrichment (c-Abl (mouse)) | phosphorylation enrichment (Fer (mouse)) | phosphorylation enrichment (Fyn) | phosphorylation enrichment (EPHB1) | phosphorylation enrichment (AncSZ) | phosphorylation enrichment (Fes) |
| --- | --- | --- | --- | --- | --- | --- | --- | --- | --- | --- | --- | --- | --- | --- | --- | --- |
| 1.19 | 0.734 | 0.629 | PSAELYSNALP [PDGFRB_Y716] | 1.79 | 0.849 | 1.73 | 1.38 | 1.91 | 3.02 | 7.96 | 0.96 | 7.66 | 1.66 | 2.63 | 1.55 | 1.79 |
| 0.926 | 0.838 | 0.945 | PVADRYDQSFE [MAPK14_Y323_P322R] | 0.653 | 1.1 | 0.796 | 0.717 | 0.695 | 0.441 | 0.448 | 0.844 | 0.518 | 0.589 | 0.475 | 0.867 | 1.5 |
| 0.962 | 0.659 | 1.57 | PVPKTYDMLNA [PKP2_Y108_K112N] | 0.597 | 1.04 | 0.737 | 0.83 | 0.622 | 1.07 | 1.14 | 1.05 | 0.542 | 0.666 | 0.512 | 0.866 | 1.11 |
| 0.819 | 0.63 | 0.319 | QAQMDYRRLQP [MPL_Y591] | 0.306 | 0.795 | 0.788 | 0.428 | 0.439 | 0.367 | 0.321 | 0.622 | 0.48 | 0.543 | 0.373 | 0.666 | 0.942 |
| 0.793 | 0.922 | 0.473 | QCTSAYLLQPE [NANS_Y188_P189L] | 0.733 | 1.19 | 1.21 | 1.4 | 0.727 | 0.596 | 0.785 | 1.24 | 0.611 | 1.01 | 0.555 | 1.41 | 1.49 |
| 1.48 | 0.725 | 0.66 | QDGFSYPSRQM [LDLR_Y847_YF] | 0.453 | 0.454 | 0.325 | 0.398 | 0.479 | 0.522 | 0.415 | 0.621 | 0.409 | 0.434 | 0.218 | 0.378 | 0.53 |
| 0.792 | 2.04 | 2.47 | QDRTYYERVRT [SPEN_Y633_S635R] | 0.749 | 0.556 | 0.697 | 1.79 | 0.767 | 5.76 | 0.629 | 0.639 | 2.62 | 1.35 | 0.732 | 0.947 | 0.728 |
